{
  "source": "patent US20200283508A1",
  "key": {"human fibrinogen (human) [1]": {"target": "human fibrinogen (human) (UniProt P02671)", "sequence (P02671 20-629 limits assumed, form in doubt, chain 1 of 3)": "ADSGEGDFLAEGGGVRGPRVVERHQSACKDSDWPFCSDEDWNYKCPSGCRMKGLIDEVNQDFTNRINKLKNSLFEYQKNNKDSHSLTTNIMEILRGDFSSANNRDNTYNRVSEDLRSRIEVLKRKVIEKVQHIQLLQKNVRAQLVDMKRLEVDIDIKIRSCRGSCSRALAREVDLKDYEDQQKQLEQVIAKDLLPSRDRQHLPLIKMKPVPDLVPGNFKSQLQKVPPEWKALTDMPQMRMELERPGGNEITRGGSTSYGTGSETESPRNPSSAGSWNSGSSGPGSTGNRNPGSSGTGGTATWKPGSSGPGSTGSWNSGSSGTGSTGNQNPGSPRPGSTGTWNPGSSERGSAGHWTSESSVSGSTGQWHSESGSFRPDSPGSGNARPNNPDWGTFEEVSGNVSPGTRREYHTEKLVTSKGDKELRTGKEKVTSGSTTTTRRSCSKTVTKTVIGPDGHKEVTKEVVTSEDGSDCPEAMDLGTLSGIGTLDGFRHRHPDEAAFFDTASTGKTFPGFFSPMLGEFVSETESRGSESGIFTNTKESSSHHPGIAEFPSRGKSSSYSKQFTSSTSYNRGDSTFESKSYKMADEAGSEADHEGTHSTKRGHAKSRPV", "sequence (P02675 31-491 limits assumed, form in doubt, chain 2 of 3, further chain)": "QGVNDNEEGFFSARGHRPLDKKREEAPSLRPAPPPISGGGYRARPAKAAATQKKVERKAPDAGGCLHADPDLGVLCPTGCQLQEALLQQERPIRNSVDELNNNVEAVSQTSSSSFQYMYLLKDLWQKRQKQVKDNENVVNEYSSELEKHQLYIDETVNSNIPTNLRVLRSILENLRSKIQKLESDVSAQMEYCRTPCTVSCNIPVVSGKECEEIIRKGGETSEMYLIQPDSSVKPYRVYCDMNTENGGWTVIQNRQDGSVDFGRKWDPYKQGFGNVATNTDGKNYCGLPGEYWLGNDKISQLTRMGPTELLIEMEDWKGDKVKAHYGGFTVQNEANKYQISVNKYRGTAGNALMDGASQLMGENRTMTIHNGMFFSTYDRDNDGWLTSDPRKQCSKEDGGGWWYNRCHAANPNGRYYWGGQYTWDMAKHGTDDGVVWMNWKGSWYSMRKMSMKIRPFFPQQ", "sequence (P02679 27-453 limits assumed, form in doubt, chain 3 of 3, further chain)": "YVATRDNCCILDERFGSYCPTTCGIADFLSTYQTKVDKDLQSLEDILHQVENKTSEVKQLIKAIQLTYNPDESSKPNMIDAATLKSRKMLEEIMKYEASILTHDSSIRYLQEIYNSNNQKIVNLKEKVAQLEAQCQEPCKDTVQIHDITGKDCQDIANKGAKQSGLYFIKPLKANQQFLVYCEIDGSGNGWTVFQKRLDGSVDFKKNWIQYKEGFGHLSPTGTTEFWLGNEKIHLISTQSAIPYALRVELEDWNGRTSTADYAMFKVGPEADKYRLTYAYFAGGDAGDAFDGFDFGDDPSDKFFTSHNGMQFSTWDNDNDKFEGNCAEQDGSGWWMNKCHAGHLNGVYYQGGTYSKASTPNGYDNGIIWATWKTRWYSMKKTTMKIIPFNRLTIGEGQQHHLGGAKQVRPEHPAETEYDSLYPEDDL", "experiment": "competition ELISA on coated Fg; competitor 2 nM rEfb-N GST fusion"}, "human fibrinogen (human) [2]": {"target": "human fibrinogen (human) (UniProt P02671)", "experiment": "competition ELISA on coated Fg; competitor 2 nM rCoa-C GST fusion"}, "[3]": {"target": "Fibrinogen-D fragment (human) (UniProt P02671)", "sequence (P02671 130-216 limits assumed, chain 1 of 3)": "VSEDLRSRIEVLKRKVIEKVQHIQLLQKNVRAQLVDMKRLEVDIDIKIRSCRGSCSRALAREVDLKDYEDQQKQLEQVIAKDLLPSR", "sequence (P02675 164-491 limits assumed, chain 2 of 3, further chain)": "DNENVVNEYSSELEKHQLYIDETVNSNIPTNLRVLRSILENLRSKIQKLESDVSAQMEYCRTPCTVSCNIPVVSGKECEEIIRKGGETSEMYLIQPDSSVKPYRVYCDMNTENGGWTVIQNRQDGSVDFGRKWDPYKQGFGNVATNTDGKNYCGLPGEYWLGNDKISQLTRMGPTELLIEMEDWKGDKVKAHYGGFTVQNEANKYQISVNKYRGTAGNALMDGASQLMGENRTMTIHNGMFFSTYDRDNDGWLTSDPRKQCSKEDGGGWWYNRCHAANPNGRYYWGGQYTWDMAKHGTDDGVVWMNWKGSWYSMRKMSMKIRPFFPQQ", "sequence (P02679 114-432 limits assumed, chain 3 of 3, further chain)": "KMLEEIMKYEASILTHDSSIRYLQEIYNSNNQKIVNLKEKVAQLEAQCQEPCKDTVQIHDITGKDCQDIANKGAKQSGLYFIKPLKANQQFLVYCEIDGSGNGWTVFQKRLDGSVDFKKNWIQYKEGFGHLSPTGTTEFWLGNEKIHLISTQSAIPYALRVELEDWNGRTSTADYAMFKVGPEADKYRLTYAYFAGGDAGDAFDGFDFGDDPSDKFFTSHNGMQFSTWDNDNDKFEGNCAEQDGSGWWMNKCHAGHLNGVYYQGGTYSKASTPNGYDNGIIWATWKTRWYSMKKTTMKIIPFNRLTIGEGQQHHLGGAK", "experiment": "ITC (VP-ITC), peptide titrated into 10 µM Fg-D, one-site model"}, "human fibrinogen (human) [4]": {"target": "human fibrinogen (human) (UniProt P02671)", "experiment": "competition ELISA on coated Fg; competitor 4 nM rCoa-C GST fusion"}, "[5]": {"target": "Fibrinogen-D fragment (human) (UniProt P02671)", "experiment": "isothermal titration calorimetry, peptide into 10 µM Fg-D, one-site model"}, "[6]": {"target": "Fibrinogen-D fragment (human) (UniProt P02671)", "experiment": "ITC (VP-ITC), fit box Model: OneSites beside the isotherm"}, "[7]": {"target": "Fibrinogen-D fragment (human) (UniProt P02671)", "experiment": "ITC (VP-ITC), fit box Model: OneSites beside the isotherm; unit not given"}, "human fibrinogen (human) [8]": {"target": "human fibrinogen (human) (UniProt P02671)", "experiment": "ELISA on coated Fg; Km = protein concentration at half of the maximum; R2 0.991"}, "human fibrinogen (human) [9]": {"target": "human fibrinogen (human) (UniProt P02671)", "experiment": "ELISA on coated Fg; Km = protein concentration at half of the maximum; R2 0.995"}, "human fibrinogen (human) [10]": {"target": "human fibrinogen (human) (UniProt P02671)", "experiment": "ELISA on coated Fg; Km = protein concentration at half of the maximum; R2 0.986"}, "human fibrinogen (human) [11]": {"target": "human fibrinogen (human) (UniProt P02671)", "experiment": "solid phase binding assay, Efb coated, Fg titrated; apparent KD; Efb coated on the well, fibrinogen titrated"}, "human fibrinogen (human) [12]": {"target": "human fibrinogen (human) (UniProt P02671)", "experiment": "ELISA, GST-tagged fragment on immobilized Fg; apparent affinity"}, "human fibrinogen (human) [13]": {"target": "human fibrinogen (human) (UniProt P02671)", "experiment": "ELISA, GST-tagged fragment on immobilized Fg"}},
  "data": [
    {"substance": "synthetic peptide Coa-O (Coa 474-505)", "values": [
      {"measurement": "IC50 (read off the curve)", "setting": "human fibrinogen (human) [1]", "value": "2000 to 3000", "unit": "nM"},
      {"measurement": "IC50 (read off the curve)", "setting": "human fibrinogen (human) [2]", "value": 9000, "unit": "nM"}
    ]},
    {"substance": "sCoa-RI3 (Coa 502-528) (peptide)", "values": [
      {"measurement": "N (binding ratio)", "setting": "[3]", "value": 0.9},
      {"measurement": "IC50 (read off the curve)", "setting": "human fibrinogen (human) [4]", "value": 10000, "unit": "nM"},
      {"measurement": "Kd", "setting": "[5]", "value": 124, "unit": "nM"}
    ]},
    {"substance": "sCoa-RV1 (Coa 610-636) (peptide)", "values": [
      {"measurement": "N (binding ratio)", "setting": "[6]", "value": 0.679},
      {"measurement": "N (binding ratio)", "setting": "[3]", "value": 0.68},
      {"measurement": "IC50 (read off the curve)", "setting": "human fibrinogen (human) [4]", "value": 10000, "unit": "nM"},
      {"measurement": "Kd", "setting": "[5]", "value": 139, "unit": "nM"},
      {"measurement": "ΔH", "setting": "[7]", "value": -39800},
      {"measurement": "ΔS", "setting": "[7]", "value": -101}
    ]},
    {"substance": "Coa-N (Coa 27-310) (from UniProt P08515 1-218)", "values": [
      {"measurement": "Km", "setting": "human fibrinogen (human) [8]", "value": 204, "unit": "nM"}
    ]},
    {"substance": "recombinant Coagulase, Coa (27-636) (from UniProt P08515 1-218)", "values": [
      {"measurement": "Km", "setting": "human fibrinogen (human) [9]", "value": 8.9, "unit": "nM"}
    ]},
    {"substance": "Coa-F (Coa 311-505) (from UniProt P08515 1-218)", "values": [
      {"measurement": "Km", "setting": "human fibrinogen (human) [10]", "value": 3.2, "unit": "nM"}
    ]},
    {"substance": "synthetic peptide Coa-RI (Coa 506-532)", "values": [
      {"measurement": "IC50 (read off the curve)", "setting": "human fibrinogen (human) [2]", "value": 3000, "unit": "nM"},
      {"measurement": "binding stoichiometry", "setting": "[5]", "value": 0.93}
    ]},
    {"substance": "Extracellular fibrinogen binding protein (Efb), full-length secreted form 30-165, His-tagged (from UniProt A6QG59 30-165)", "values": [
      {"measurement": "Kd", "setting": "human fibrinogen (human) [11]", "value": 1, "unit": "nM"}
    ]},
    {"substance": "Coa-R (Coa 506-636)", "values": [
      {"measurement": "Kd", "setting": "human fibrinogen (human) [12]", "value": 0.8, "unit": "nM"}
    ]},
    {"substance": "Coa-C (Coa 311-636) (from UniProt P08515 1-218)", "values": [
      {"measurement": "EC50", "setting": "human fibrinogen (human) [13]", "value": 7.5, "unit": "nM"}
    ]}
  ]
}
